From patent US20220064329A1 (Novo Nordisk, published 2022)
Changes are numbered by the printed parent chain. Names and notes keep the numbering of the source.

T1: recombinant human activated Factor VII (FVIIa) (human, UniProt P08709 61-212; P08709 213-466, ten glutamate residues of the Gla domain may be gamma-carboxylated)
T1 construct: chains tethered by a disulfide bond; also called Factor VIIa; rFVIIa
T1 sequence 1: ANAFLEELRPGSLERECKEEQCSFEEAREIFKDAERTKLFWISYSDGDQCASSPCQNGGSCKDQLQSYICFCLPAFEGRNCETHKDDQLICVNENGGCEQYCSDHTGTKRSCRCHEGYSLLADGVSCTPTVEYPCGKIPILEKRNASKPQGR
T1 sequence 2: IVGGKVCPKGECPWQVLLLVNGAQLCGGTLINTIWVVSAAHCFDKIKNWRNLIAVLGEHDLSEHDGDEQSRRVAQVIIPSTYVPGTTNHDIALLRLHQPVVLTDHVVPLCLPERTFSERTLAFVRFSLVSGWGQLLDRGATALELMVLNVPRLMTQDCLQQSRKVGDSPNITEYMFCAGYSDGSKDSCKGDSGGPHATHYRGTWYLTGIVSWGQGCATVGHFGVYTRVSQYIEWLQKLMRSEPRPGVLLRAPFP

B1: VH SEQ ID NO 586 / VL SEQ ID NO 430 (antibody, IgG4, V domains shown)
VH: QVQLQESGPGLVKPSDTLSLTCAVSGYSISSDSAWSWIRQPPGKGLEWIGYIQYSGSTNYNPSLKSRVTMSVDTSKNQFSLKLSSVTALDTAVYYCARSVNYYGNSFAVGYWGQGTLVTVSS
VL: EIVLTQSPATLSLSPGERATLSCRASQGVSDYLAWYQQKPGQAPRLLIKYASQPATGIPARFSGSGSGTDFTLTISSLEPEDFGVYYCQNGHSFPLTFGQGTKLEIK
notes: humanized 11F2; IgG4 S228P/kappa
B2: VH SEQ ID NO 586 / VL SEQ ID NO 438 (antibody, IgG4, V domains shown)
VH: B1 VH
VL: B1 VL with F83V, G84A
notes: as for B1
B3: VH SEQ ID NO 586 / VL SEQ ID NO 454 (antibody, IgG4, V domains shown)
VH: B1 VH
VL: B1 VL with A34H, Q42E, G84A
notes: as for B1
B4: VH SEQ ID NO 586 / VL SEQ ID NO 462 (antibody, IgG4, V domains shown)
VH: B1 VH
VL: B1 VL with A34H, G84A, Q100A
notes: as for B1
B5: VH SEQ ID NO 586 / VL SEQ ID NO 470 (antibody, IgG4, V domains shown)
VH: B1 VH
VL: B1 VL with A34H, G84A
notes: as for B1
B6: VH SEQ ID NO 586 / VL SEQ ID NO 478 (antibody, IgG4, V domains shown)
VH: B1 VH
VL: B1 VL with A34H, G84A, N90Q
notes: as for B1
B7: VH SEQ ID NO 586 / VL SEQ ID NO 486 (antibody, IgG4, V domains shown)
VH: B1 VH
VL: B1 VL with A34H
notes: as for B1
B8: VH SEQ ID NO 586 / VL SEQ ID NO 494 (antibody, IgG4, V domains shown)
VH: B1 VH
VL: B1 VL with A34H, F83V, G84A
notes: as for B1
B9: VH SEQ ID NO 586 / VL SEQ ID NO 502 (antibody, IgG4, V domains shown)
VH: B1 VH
VL: B1 VL with A34H, A51T, G84A
notes: as for B1
B10: VH SEQ ID NO 594 / VL SEQ ID NO 318 (antibody, IgG4, V domains shown)
VH: B1 VH with G45K, Y111P
VL: B1 VL with V29I, A34H, Q42E, A51T, G84A
notes: as for B1
B11: VH SEQ ID NO 594 / VL SEQ ID NO 326 (antibody, IgG4, V domains shown)
VH: B1 VH with G45K, Y111P
VL: B1 VL with V29I, A34H, Q42E, A51T, Q100A, I106L
notes: as for B1
B12: VH SEQ ID NO 594 / VL SEQ ID NO 334 (antibody, IgG4, V domains shown)
VH: B1 VH with G45K, Y111P
VL: B1 VL with V29I, A34H, G84A
notes: as for B1
B13: VH SEQ ID NO 594 / VL SEQ ID NO 342 (antibody, IgG4, V domains shown)
VH: B1 VH with G45K, Y111P
VL: B1 VL with V29I, A34H, A51T, T69R, G84A, Q100A, I106L
notes: as for B1
B14: VH SEQ ID NO 594 / VL SEQ ID NO 350 (antibody, IgG4, V domains shown)
VH: B1 VH with G45K, Y111P
VL: B1 VL with V29I, A34H, A51T, G84A, Q100A, I106L
notes: as for B1
B15: VH SEQ ID NO 594 / VL SEQ ID NO 358 (antibody, IgG4, V domains shown)
VH: B1 VH with G45K, Y111P
VL: B1 VL with V29I, A34H, A51T, G84A
notes: as for B1
B16: VH SEQ ID NO 594 / VL SEQ ID NO 382 (antibody, IgG4, V domains shown)
VH: B1 VH with G45K, Y111P
VL: B1 VL with V29L, A34H, Q42E, G84A
notes: as for B1
B17: VH SEQ ID NO 594 / VL SEQ ID NO 454 (antibody, IgG4, V domains shown)
VH: B1 VH with G45K, Y111P
VL: B1 VL with A34H, Q42E, G84A
notes: as for B1
B18: VH SEQ ID NO 594 / VL SEQ ID NO 462 (antibody, IgG4, V domains shown)
VH: B1 VH with G45K, Y111P
VL: B1 VL with A34H, G84A, Q100A
notes: as for B1
B19: VH SEQ ID NO 594 / VL SEQ ID NO 470 (antibody, IgG4, V domains shown)
VH: B1 VH with G45K, Y111P
VL: B1 VL with A34H, G84A
notes: as for B1
B20: VH SEQ ID NO 594 / VL SEQ ID NO 478 (antibody, IgG4, V domains shown)
VH: B1 VH with G45K, Y111P
VL: B1 VL with A34H, G84A, N90Q
notes: as for B1
B21: VH SEQ ID NO 594 / VL SEQ ID NO 486 (antibody, IgG4, V domains shown)
VH: B1 VH with G45K, Y111P
VL: B1 VL with A34H
notes: as for B1
B22: VH SEQ ID NO 594 / VL SEQ ID NO 494 (antibody, IgG4, V domains shown)
VH: B1 VH with G45K, Y111P
VL: B1 VL with A34H, F83V, G84A
notes: as for B1
B23: VH SEQ ID NO 594 / VL SEQ ID NO 502 (antibody, IgG4, V domains shown)
VH: B1 VH with G45K, Y111P
VL: B1 VL with A34H, A51T, G84A
notes: as for B1
B24: VH SEQ ID NO 602 / VL SEQ ID NO 310 (antibody, IgG4, V domains shown)
VH: B1 VH with D16Q, A23T, Y27G, M70I, L89A
VL: B1 VL with V29I, G84A
notes: as for B1
B25: VH SEQ ID NO 602 / VL SEQ ID NO 318 (antibody, IgG4, V domains shown)
VH: B1 VH with D16Q, A23T, Y27G, M70I, L89A
VL: B1 VL with V29I, A34H, Q42E, A51T, G84A
notes: as for B1
B26: VH SEQ ID NO 602 / VL SEQ ID NO 326 (antibody, IgG4, V domains shown)
VH: B1 VH with D16Q, A23T, Y27G, M70I, L89A
VL: B1 VL with V29I, A34H, Q42E, A51T, Q100A, I106L
notes: as for B1
B27: VH SEQ ID NO 602 / VL SEQ ID NO 334 (antibody, IgG4, V domains shown)
VH: B1 VH with D16Q, A23T, Y27G, M70I, L89A
VL: B1 VL with V29I, A34H, G84A
notes: as for B1
B28: VH SEQ ID NO 602 / VL SEQ ID NO 342 (antibody, IgG4, V domains shown)
VH: B1 VH with D16Q, A23T, Y27G, M70I, L89A
VL: B1 VL with V29I, A34H, A51T, T69R, G84A, Q100A, I106L
notes: as for B1
B29: VH SEQ ID NO 602 / VL SEQ ID NO 350 (antibody, IgG4, V domains shown)
VH: B1 VH with D16Q, A23T, Y27G, M70I, L89A
VL: B1 VL with V29I, A34H, A51T, G84A, Q100A, I106L
notes: as for B1
B30: VH SEQ ID NO 602 / VL SEQ ID NO 358 (antibody, IgG4, V domains shown)
VH: B1 VH with D16Q, A23T, Y27G, M70I, L89A
VL: B1 VL with V29I, A34H, A51T, G84A
notes: as for B1
B31: VH SEQ ID NO 602 / VL SEQ ID NO 366 (antibody, IgG4, V domains shown)
VH: B1 VH with D16Q, A23T, Y27G, M70I, L89A
VL: B1 VL with V29L, Q42E, G84A
notes: as for B1
B32: VH SEQ ID NO 602 / VL SEQ ID NO 382 (antibody, IgG4, V domains shown)
VH: B1 VH with D16Q, A23T, Y27G, M70I, L89A
VL: B1 VL with V29L, A34H, Q42E, G84A
notes: as for B1
B33: VH SEQ ID NO 602 / VL SEQ ID NO 390 (antibody, IgG4, V domains shown)
VH: B1 VH with D16Q, A23T, Y27G, M70I, L89A
VL: B1 VL with Q42E, G84A
notes: as for B1
B34: VH SEQ ID NO 602 / VL SEQ ID NO 406 (antibody, IgG4, V domains shown)
VH: B1 VH with D16Q, A23T, Y27G, M70I, L89A
VL: B1 VL with G84A, Q100A
notes: as for B1
B35: VH SEQ ID NO 602 / VL SEQ ID NO 414 (antibody, IgG4, V domains shown)
VH: B1 VH with D16Q, A23T, Y27G, M70I, L89A
VL: B1 VL with G84A
notes: as for B1
B36: VH SEQ ID NO 602 / VL SEQ ID NO 430 (antibody, IgG4, V domains shown)
VH: B1 VH with D16Q, A23T, Y27G, M70I, L89A
VL: B1 VL
notes: as for B1
B37: VH SEQ ID NO 602 / VL SEQ ID NO 438 (antibody, IgG4, V domains shown)
VH: B1 VH with D16Q, A23T, Y27G, M70I, L89A
VL: B1 VL with F83V, G84A
notes: as for B1
B38: VH SEQ ID NO 602 / VL SEQ ID NO 454 (antibody, IgG4, V domains shown)
VH: B1 VH with D16Q, A23T, Y27G, M70I, L89A
VL: B1 VL with A34H, Q42E, G84A
notes: as for B1
B39: VH SEQ ID NO 602 / VL SEQ ID NO 462 (antibody, IgG4, V domains shown)
VH: B1 VH with D16Q, A23T, Y27G, M70I, L89A
VL: B1 VL with A34H, G84A, Q100A
notes: as for B1
B40: VH SEQ ID NO 602 / VL SEQ ID NO 470 (antibody, IgG4, V domains shown)
VH: B1 VH with D16Q, A23T, Y27G, M70I, L89A
VL: B1 VL with A34H, G84A
notes: as for B1
B41: VH SEQ ID NO 602 / VL SEQ ID NO 478 (antibody, IgG4, V domains shown)
VH: B1 VH with D16Q, A23T, Y27G, M70I, L89A
VL: B1 VL with A34H, G84A, N90Q
notes: as for B1
B42: VH SEQ ID NO 602 / VL SEQ ID NO 486 (antibody, IgG4, V domains shown)
VH: B1 VH with D16Q, A23T, Y27G, M70I, L89A
VL: B1 VL with A34H
notes: as for B1
B43: VH SEQ ID NO 602 / VL SEQ ID NO 494 (antibody, IgG4, V domains shown)
VH: B1 VH with D16Q, A23T, Y27G, M70I, L89A
VL: B1 VL with A34H, F83V, G84A
notes: as for B1
B44: VH SEQ ID NO 602 / VL SEQ ID NO 502 (antibody, IgG4, V domains shown)
VH: B1 VH with D16Q, A23T, Y27G, M70I, L89A
VL: B1 VL with A34H, A51T, G84A
notes: as for B1
B45: VH SEQ ID NO 610 / VL SEQ ID NO 310 (antibody, IgG4, V domains shown)
VH: B1 VH with D16Q, A23T, Y27G, S30T, M70I, L89A
VL: B1 VL with V29I, G84A
notes: as for B1

Target: T1, recombinant human activated Factor VII …
Experiment: BLI (Fortebio)

Binder	Kd
B1	13 nM
B2	23 nM
B3	16 nM
B4	18 nM
B5	15 nM
B6	27 nM
B7	18 nM
B8	17 nM
B9	15 nM
B10	23 nM
B11	22 nM
B12	32 nM
B13	120 nM
B14	34 nM
B15	24 nM
B16	140 nM
B17	32 nM
B18	39 nM
B19	35 nM
B20	200 nM
B21	33 nM
B22	43 nM
B23	30 nM

Binder	Kd
B24	48 nM
B25	9 nM
B26	8.8 nM
B27	10 nM
B28	14 nM
B29	10 nM
B30	9.2 nM
B31	51 nM
B32	14 nM
B33	370 nM
B34	90 nM
B35	310 nM
B36	590 nM
B37	600 nM
B38	13 nM
B39	15 nM
B40	13 nM
B41	24 nM
B42	15 nM
B43	14 nM
B44	14 nM
B45	80 nM
